Reference: patent US20220348668A1 (UNIVERSITE DE FRANCHE COMTE, published 2022)

How the values were obtained:
[1] = biological target: CD123 on cells and tissues (CAL-1, GEN 2.2, PDX and primary BPDCN cells, normal pDC, monocytes, CD34+ cells, endothelial cells) (human) (UniProt P26951); assay: flow cytometry on monocytes; mean [minimum-maximum]
[2] = biological target: CD123 on cells and tissues (CAL-1, GEN 2.2, PDX and primary BPDCN cells, normal pDC, monocytes, CD34+ cells, endothelial cells) (human) (UniProt P26951); assay: flow cytometry on normal pDC; mean [minimum-maximum]
[3] = biological target: CD123 on cells and tissues (CAL-1, GEN 2.2, PDX and primary BPDCN cells, normal pDC, monocytes, CD34+ cells, endothelial cells) (human) (UniProt P26951); assay: flow cytometry on BPDCN cells; mean [minimum-maximum]
[4] = biological target: CD123 on cells and tissues (CAL-1, GEN 2.2, PDX and primary BPDCN cells, normal pDC, monocytes, CD34+ cells, endothelial cells) (human) (UniProt P26951); assay: flow cytometry on CD34+ cells; mean [minimum-maximum]
[5] = biological target: CD123 on cells and tissues (CAL-1, GEN 2.2, PDX and primary BPDCN cells, normal pDC, monocytes, CD34+ cells, endothelial cells) (human) (UniProt P26951); assay: flow cytometry on endothelial HMEC cell line; mean [minimum-maximum]
[6] = biological target: CD123 on cells and tissues (CAL-1, GEN 2.2, PDX and primary BPDCN cells, normal pDC, monocytes, CD34+ cells, endothelial cells) (human) (UniProt P26951); assay: flow cytometry, MFIR = MFI of CD123 staining / MFI of isotype control mAb; cells: BPDCN, n=3; mean [min-max]
[7] = biological target: CD123 on cells and tissues (CAL-1, GEN 2.2, PDX and primary BPDCN cells, normal pDC, monocytes, CD34+ cells, endothelial cells) (human) (UniProt P26951); assay: flow cytometry, MFIR = MFI of CD123 staining / MFI of isotype control mAb; cells: CD34 cells, n=7; mean [min-max]
[8] = biological target: CD123 on cells and tissues (CAL-1, GEN 2.2, PDX and primary BPDCN cells, normal pDC, monocytes, CD34+ cells, endothelial cells) (human) (UniProt P26951); assay: flow cytometry, MFIR = MFI of CD123 staining / MFI of isotype control mAb; cells: monocytes, n=12; mean [min-max]
[9] = biological target: CD123 on cells and tissues (CAL-1, GEN 2.2, PDX and primary BPDCN cells, normal pDC, monocytes, CD34+ cells, endothelial cells) (human) (UniProt P26951); assay: flow cytometry, MFIR = MFI of CD123 staining / MFI of isotype control mAb; cells: normal pDC, n=7; mean [min-max]
[10] = biological target: CD123 on cells and tissues (CAL-1, GEN 2.2, PDX and primary BPDCN cells, normal pDC, monocytes, CD34+ cells, endothelial cells) (human) (UniProt P26951); assay: flow cytometry, MFIR = MFI of CD123 staining / MFI of isotype control mAb; cells: lymphocytes, n=12; mean [min-max]
[11] = biological target: CD123 on cells and tissues (CAL-1, GEN 2.2, PDX and primary BPDCN cells, normal pDC, monocytes, CD34+ cells, endothelial cells) (human) (UniProt P26951); assay: flow cytometry, MFIR = MFI of CD123 staining / MFI of isotype control mAb; cells: polynuclear cells, n=5; mean [min-max]
[12] = biological target: T1, CD123 (protein in solution in the Octet affinity assay) (human, UniProt P26951 19-305, limits assumed); assay: BLI (Octet), antibody on streptavidin biosensor, CD123 25 nM
T1 construct: also called IL-3Rα; Interleukine-3 Receptor alpha
T1 sequence (looked up): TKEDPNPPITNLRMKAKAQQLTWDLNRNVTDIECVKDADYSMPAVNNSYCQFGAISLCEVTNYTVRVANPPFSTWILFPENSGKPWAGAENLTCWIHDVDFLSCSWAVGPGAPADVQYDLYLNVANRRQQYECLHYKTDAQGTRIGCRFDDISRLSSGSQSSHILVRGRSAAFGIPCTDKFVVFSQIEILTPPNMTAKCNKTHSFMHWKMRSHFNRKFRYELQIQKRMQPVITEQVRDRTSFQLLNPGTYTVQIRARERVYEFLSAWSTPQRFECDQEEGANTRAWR
Protocol: (§1) Affinity of the antibodies of the invention to CD123 is tested on streptavidin biosensors. Herein, to determine KD values seven different concentrations of CD123 were used on immobilized antibodies of the invention. The results were analyzed according to the Octet system available at FortéBio.

[13] = biological target: T1, CD123 (protein in solution in the Octet …); assay: BLI (Octet), antibody on streptavidin biosensor, CD123 50 nM
Protocol: as §1

[14] = biological target: T1, CD123 (protein in solution in the Octet …); assay: BLI (Octet), antibody on streptavidin biosensor, CD123 12.5 nM
Protocol: as §1

[15] = biological target: T1, CD123 (protein in solution in the Octet …); assay: BLI (Octet), antibody on streptavidin biosensor, CD123 6.25 nM
Protocol: as §1

[16] = biological target: T1, CD123 (protein in solution in the Octet …); assay: BLI (Octet), antibody on streptavidin biosensor, CD123 in solution
Protocol: as §1

| Molecule | MFI [1] | MFI [2] | MFI [3] | MFI [4] | MFI [5] | MFIR [6] | MFIR [7] | MFIR [8] | MFIR [9] | MFIR [10] | MFIR [11] | Response [12] | Response [13] | Response [14] | Response [15] | Kd [16] [nM] | koff [16] [s⁻¹] | kon [16] [M⁻¹ s⁻¹] |
| --- | --- | --- | --- | --- | --- | --- | --- | --- | --- | --- | --- | --- | --- | --- | --- | --- | --- | --- |
| 6H6 commercial antiCD123 antibody | 1700 | 34400 | 11700 | 874 | 1250 | 42.2 | 8 | 3.3 | 210 | 2.2 | 1.5 |  |  |  |  |  |  |  |
| 18B4D5 (antibody, V domains shown, Mouse hybridoma monoclonal antibody; The tie uses 'at least 85% identity' wording; also called AB1; antiCD123 B4D5) VH: EVKLQESGPGLVKPSQSLSLTCTVTGYSITSDYTWNWIRQFPGNKLEWMGYISFSGSTSYNPSLKSRLSITRDTSKNQFFLQLNSVTTEDTATYYCARGLDYWGQGTTLTVSS VL: DIVMTQSPAIMSASLGERVTMTCTASSSISSSYLYWYQQKPGSSPKLWIYSTSNLASGVPARFSGSGSGTSYSLTISSMEAEDAATYYCHQLHRSPWTFGGGTKLEIKR |  |  |  |  |  |  |  |  |  |  |  | 0.42 | 0.697 | 0.23 | 0.12 | < 0.001 | < 1e-07 | 122000 |
| 14G12D7 (antibody, V domains shown, Mouse hybridoma monoclonal antibody; also called AB4) VH: EVQLQESGPGLVKPSQSLSLTCTVTGYSVTSDYAWNWIRQFPGNKLEWMGYIIYSGTTSYNPSLKSRISITRDTSKNQFFLQLNSVTTEDTATYYCTRGVDYWGQGTTLTVSS VL: DIVLTQSPAIMSASPGEKVTMTCRASSSVRSSYLHWYQQKSGASPKLWIYSTSNLASGVPARFSGSGSGTSYSLTISSVEAEDAATYYCLQFSGYPFTFGGGTKLEIKR |  |  |  |  |  |  |  |  |  |  |  | 0.134 | 0.221 |  |  | 8.84 | 0.000325 | 36700 |
| 11B6E6 (antibody, V domains shown, Mouse hybridoma monoclonal antibody; also called AB3) VH: QVKLEESGPGLVAPSQSLSITCTVSGFSLTSYDISWIRQPPGKGLEWLGVIWTGGGTNYNSAFMSRLSISKDNSKSQVFLKMFSLQTDDTAIYYCVRAHGYYFAMDYWGQGTSVTVSS VL: DIVLTQSPSSLAVSAGEKVTMRCKSSQSLLNSSTRKNYLAWYQQKPGQSPKLLIYWASTRESGVPDRFTGSGSGTDFTLTISSVQAEDLAVYYCKQSYNLFTFGSGTKLEIKR |  |  |  |  |  |  |  |  |  |  |  | 0.179 | 0.316 | 0.0895 | 0.0349 | 9.37 | 0.000657 | 70100 |
| 15E11B7 (antibody, V domains shown, Mouse hybridoma monoclonal antibody; also called AB6) VH: EVQLEQSGPELVKPGDSVKISCKASGYSFTGYFMNWVKQSHGKSLEWIGRINPYNDYTFNNQKFKDKATLTVDKSSSTAHMELLSLTSEDSAVYYCGGGVRGAWFAFWGQGTLVTVSE VL: DIVLTQSTTSLAVSLGQRATISCRASKSVSTSGYNYMHWYQQKPGQPPKLLIYLASNLESGVPARFSGSGSGTDFTLNIHPVEEEDAATYYCQHSADLPYTFGGGTKLEIKR |  |  |  |  |  |  |  |  |  |  |  | 0.305 |  | 0.155 | 0.0878 | 2.48 | 0.000826 | 332000 |
| 17F7B2 (antibody, V domains shown, Mouse hybridoma monoclonal antibody; also called AB2) VH: EVQLQQSGTVLARPGASVKMSCKASGYSFTSYWMHWVKQRPGQGLEWIGAFYPGKSDTTYNQKFKGKAKLTAVTSASTAYMELSSLTNEDSAVYYCTKGYRYDWFAYWGQGTLVTVSA VL: DVVMTQTPLSLPVSLGDQASISCRSSQSLVHSNGITYLHWYLQKPGQSPKLLIYKVSNRFSGVPDRFSGSGSGTDFTLKISRVEAEDLGVYFCSQNTHVPFTFGSGTKLEIKR |  |  |  |  |  |  |  |  |  |  |  | 0.34 | 0.507 | 0.265 | 0.149 | 2.55 | 0.000882 | 346000 |
| 11A12C6 (antibody, V domains shown, Mouse hybridoma monoclonal antibody; also called AB5) VH: QVQLKESGPGLVAPSQSLSITCTVSGFSLTSYDINWIRQTPGKGLEWLGVIWTGGGTNYNSAFMSRLSISRDNSKSQVFLKMNSLQTDDTAIYYCVRGDGYYWYFDVWGAGTTVTVSS VL: IVMTQSPSSLAVSAGEKVTMSCKSSQSLFSSSARKNYLAWYQQRPGQSPKLLIYWASTRESGVPDRFTGSGSGTDFTLTIGSVQAEDLAVYYCKQSYSLFTFGSGTKLEIKR |  |  |  |  |  |  |  |  |  |  |  |  |  | 0.416 | 0.281 | < 0.001 | < 1e-07 | 326000 |
